# According to PMC9742198 (Immunity, 2022):
# B1: CAB-I12 (antibody, V domains shown)
# VH: QVQLVQSGAEVKKPGSSVKVSCKASGDTFSRYSISWVRQAPGQGLEWMGRIIPMFATANYAQKFQGRVTITADKTTSIAYMELSSLRSEDTAVYYCARANYYYESGGYHFDNWGQGTLVTVSS
# VL: EIVLTQSPGTLSLSPGERATLSCRASQSVGSSYLAWYQQKPGQAPRLLIYGASTRATGIPHRFSGSGSGTDFTLTISRLEPEDFAVYYCQQYHNSPRTFGQGTKV
# Molecular target: SARS-CoV-2 receptor-binding domain (ancestral RBD) (SARS-CoV-2 (ancestral), UniProt P0DTC2)
# Test: ELISA
binder,measurement,value
B1,binding result,binds
